Data as given in article PMC9482650, “Quantitative fragmentomics allow affinity mapping of interactomes” (Nature Communications, 2022).
Substitutions are numbered along the chain they refer to.

T1: APBA2_1, Q99767
T1 sequence (Q99767 563-664, limits assumed, looked up): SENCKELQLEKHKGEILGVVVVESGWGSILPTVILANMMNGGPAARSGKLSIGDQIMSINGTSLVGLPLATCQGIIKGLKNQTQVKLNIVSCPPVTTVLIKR

T2: ARHGEF11, O15085
T2 sequence (O15085 42-136, limits assumed, looked up): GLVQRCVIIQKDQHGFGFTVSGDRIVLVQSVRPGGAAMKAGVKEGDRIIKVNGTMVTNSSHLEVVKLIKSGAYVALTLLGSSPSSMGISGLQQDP

T3: LIN7C, Q9NUP9
T3 sequence (Q9NUP9 88-185, limits assumed, looked up): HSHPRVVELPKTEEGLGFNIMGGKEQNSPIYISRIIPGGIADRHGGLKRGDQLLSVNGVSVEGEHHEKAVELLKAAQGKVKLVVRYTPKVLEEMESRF

T4: RAPGEF6, Q8TEU7
T4 sequence (Q8TEU7 525-625, limits assumed, looked up): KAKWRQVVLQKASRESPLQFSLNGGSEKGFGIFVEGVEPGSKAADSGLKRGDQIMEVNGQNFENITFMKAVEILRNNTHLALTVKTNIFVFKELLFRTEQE

T5: PCLO, Q9Y6V0
T5 sequence (Q9Y6V0 4491-4600, limits assumed, looked up): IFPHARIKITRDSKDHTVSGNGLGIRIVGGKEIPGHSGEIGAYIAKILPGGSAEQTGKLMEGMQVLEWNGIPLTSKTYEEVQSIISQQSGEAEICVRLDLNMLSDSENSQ

T6: SNTG2, Q9NY99
T6 sequence (Q9NY99 68-166, limits assumed, looked up): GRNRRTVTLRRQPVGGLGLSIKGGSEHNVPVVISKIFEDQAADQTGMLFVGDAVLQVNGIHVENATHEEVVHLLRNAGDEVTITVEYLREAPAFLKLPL

T7: APBA1_2, Q02410
T7 sequence (Q02410 742-832, limits assumed, looked up): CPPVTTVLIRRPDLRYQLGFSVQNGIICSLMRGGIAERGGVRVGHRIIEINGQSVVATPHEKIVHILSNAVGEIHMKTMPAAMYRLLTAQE

T8: LIN7A, O14910
T8 sequence (O14910 103-200, limits assumed, looked up): T3 sequence (Q9NUP9 88-185, limits assumed, looked up) with E13D, I20V, I40V, D42E, Q77K, G78D, K79S, S96A

T9: PARD3B_1, Q8TEW8
T9 sequence (Q8TEW8 196-299, limits assumed, looked up): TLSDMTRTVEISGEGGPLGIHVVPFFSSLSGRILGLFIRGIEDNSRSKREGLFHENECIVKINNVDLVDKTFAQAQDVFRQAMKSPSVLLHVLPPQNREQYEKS

T10: DLG3_1, Q92796
T10 sequence (Q92796 125-227, limits assumed, looked up): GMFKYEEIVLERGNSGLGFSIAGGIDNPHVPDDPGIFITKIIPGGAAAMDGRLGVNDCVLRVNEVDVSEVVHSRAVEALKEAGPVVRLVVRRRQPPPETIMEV

T11: TX1BP3, O14907
T11 sequence (O14907 10-122, limits assumed, looked up): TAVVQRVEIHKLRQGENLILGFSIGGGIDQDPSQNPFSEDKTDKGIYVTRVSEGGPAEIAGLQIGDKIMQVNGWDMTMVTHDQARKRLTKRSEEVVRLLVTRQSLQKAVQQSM

B1: EPHB3, P54753 (peptide)
chain: QMNQTLPVQV
B2: TANC1, Q9C0D5 (peptide)
chain: PKRSFIESNV
B3: CES3, Q6UWW8 (peptide)
chain: QKNRKAQEDL
B4: MYOZ1, Q9NP98 (peptide)
chain: IPLDGETEEL
B5: ZNF831, Q5JPB2 (peptide)
chain: DDEDRLVIEI

Experiments:
Experiment in all cases: holdup assay
Design in all cases: key: below the threshold = too weak to quantify, mostly under pKd 3.1 to 4
Settings in all cases: plain residues with an end cap or a label only (N-terminal biotin on a linker: ado-ado)
DLG1_2, Q12959 = molecular target: DLG1_2, Q12959
Chain of DLG1_2, Q12959 (Q12959 314-412): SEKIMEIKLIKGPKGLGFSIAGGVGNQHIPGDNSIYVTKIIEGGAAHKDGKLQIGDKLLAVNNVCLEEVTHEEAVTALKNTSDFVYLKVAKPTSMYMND

APBA2_1, Q99767 = molecular target: T1, APBA2_1, Q99767
Inadl_10, Q8NI35 = molecular target: Inadl_10, Q8NI35
Chain of Inadl_10, Q8NI35 (Q8NI35 1673-1763): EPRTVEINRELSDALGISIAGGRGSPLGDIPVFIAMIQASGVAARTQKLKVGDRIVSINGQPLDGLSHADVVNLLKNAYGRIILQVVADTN

ARHGEF11, O15085 = molecular target: T2, ARHGEF11, O15085
DLG2_3, Q15700 = molecular target: DLG2_3, Q15700
LNX1_2, Q8TBB1 = molecular target: LNX1_2, Q8TBB1
Chain of LNX1_2, Q8TBB1 (Q8TBB1 371-470): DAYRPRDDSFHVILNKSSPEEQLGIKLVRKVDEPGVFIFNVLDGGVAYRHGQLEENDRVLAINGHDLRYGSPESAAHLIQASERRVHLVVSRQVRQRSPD

LIN7C, Q9NUP9 = molecular target: T3, LIN7C, Q9NUP9
RAPGEF6, Q8TEU7 = molecular target: T4, RAPGEF6, Q8TEU7
PCLO, Q9Y6V0 = molecular target: T5, PCLO, Q9Y6V0
SNTG2, Q9NY99 = molecular target: T6, SNTG2, Q9NY99
MAGI2_6, Q86UL8 = molecular target: MAGI2_6, Q86UL8
Chain of MAGI2_6, Q86UL8 (Q86UL8 1141-1229): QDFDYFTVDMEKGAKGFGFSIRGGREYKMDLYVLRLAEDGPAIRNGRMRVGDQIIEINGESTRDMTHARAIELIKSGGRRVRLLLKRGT

APBA1_2, Q02410 = molecular target: T7, APBA1_2, Q02410
FRMPD2_3, Q68DX3 = molecular target: FRMPD2_3, Q68DX3
Chain of FRMPD2_3, Q68DX3 (Q68DX3 1073-1166): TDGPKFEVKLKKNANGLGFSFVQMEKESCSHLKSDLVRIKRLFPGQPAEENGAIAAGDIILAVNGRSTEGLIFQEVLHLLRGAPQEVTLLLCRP

HTRA2, O43464 = molecular target: HTRA2, O43464
Chain of HTRA2, O43464 (O43464 355-458): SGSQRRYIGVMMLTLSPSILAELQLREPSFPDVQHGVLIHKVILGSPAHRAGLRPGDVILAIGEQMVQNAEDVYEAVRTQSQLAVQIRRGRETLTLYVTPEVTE

LIN7A, O14910 = molecular target: T8, LIN7A, O14910
LIMK2, P53671 = molecular target: LIMK2, P53671
Chain of LIMK2, P53671 (P53671 143-248): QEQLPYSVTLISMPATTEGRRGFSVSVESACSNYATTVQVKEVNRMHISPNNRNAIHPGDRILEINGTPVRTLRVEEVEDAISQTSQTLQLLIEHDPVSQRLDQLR

PARD3B_1, Q8TEW8 = molecular target: T9, PARD3B_1, Q8TEW8
GRASP, Q7Z6J2 = molecular target: GRASP, Q7Z6J2
Chain of GRASP, Q7Z6J2 (Q7Z6J2 96-193): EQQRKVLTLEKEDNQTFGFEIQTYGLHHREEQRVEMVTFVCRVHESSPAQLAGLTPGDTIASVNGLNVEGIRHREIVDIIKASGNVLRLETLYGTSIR

Inadl_9, Q8NI35 = molecular target: Inadl_9, Q8NI35
Chain of Inadl_9, Q8NI35 (Q8NI35 1530-1615): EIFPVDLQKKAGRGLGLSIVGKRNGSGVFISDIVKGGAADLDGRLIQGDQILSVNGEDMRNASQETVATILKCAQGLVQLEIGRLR

DLG5_1, Q8TDM6 = molecular target: DLG5_1, Q8TDM6
Chain of DLG5_1, Q8TDM6 (Q8TDM6 617-713): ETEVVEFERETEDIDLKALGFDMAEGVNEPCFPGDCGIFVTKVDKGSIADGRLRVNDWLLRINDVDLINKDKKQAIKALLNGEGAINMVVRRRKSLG

DLG3_1, Q92796 = molecular target: T10, DLG3_1, Q92796
MAGI3_2, Q5TCQ9 = molecular target: MAGI3_2, Q5TCQ9
Chain of MAGI3_2, Q5TCQ9 (Q5TCQ9 398-503): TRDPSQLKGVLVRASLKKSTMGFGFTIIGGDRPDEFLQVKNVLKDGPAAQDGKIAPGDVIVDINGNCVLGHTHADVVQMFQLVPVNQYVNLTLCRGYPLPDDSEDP

FRMPD3, Q5JV73 = molecular target: FRMPD3, Q5JV73
Chain of FRMPD3, Q5JV73 (Q5JV73 12-100): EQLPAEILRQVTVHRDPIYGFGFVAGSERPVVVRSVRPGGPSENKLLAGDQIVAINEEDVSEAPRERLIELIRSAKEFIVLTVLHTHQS

LNX1_1, Q8TBB1 = molecular target: LNX1_1, Q8TBB1
Chain of LNX1_1, Q8TBB1 (Q8TBB1 261-371): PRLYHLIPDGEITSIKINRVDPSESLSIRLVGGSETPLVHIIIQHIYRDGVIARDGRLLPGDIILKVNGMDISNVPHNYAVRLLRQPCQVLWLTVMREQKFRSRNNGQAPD

GRIP2_7, Q9C0E4 = molecular target: GRIP2_7, Q9C0E4
Chain of GRIP2_7, Q9C0E4 (Q9C0E4 934-1023): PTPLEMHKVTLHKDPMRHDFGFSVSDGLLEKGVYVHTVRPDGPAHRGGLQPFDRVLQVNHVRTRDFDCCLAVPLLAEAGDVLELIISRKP

TX1BP3, O14907 = molecular target: T11, TX1BP3, O14907
AHNAK1, Q09666 = molecular target: AHNAK1, Q09666
Chain of AHNAK1, Q09666 (Q09666 4-100): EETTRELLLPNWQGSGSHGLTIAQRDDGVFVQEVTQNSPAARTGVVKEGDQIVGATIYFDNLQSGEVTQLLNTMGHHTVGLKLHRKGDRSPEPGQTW

Row | Binder | pKd (DLG1_2, Q12959) | pKd (APBA2_1, Q99767) | pKd (Inadl_10, Q8NI35) | pKd (ARHGEF11, O15085) | pKd (DLG2_3, Q15700) | pKd (LNX1_2, Q8TBB1) | pKd (LIN7C, Q9NUP9) | pKd (RAPGEF6, Q8TEU7) | pKd (PCLO, Q9Y6V0) | pKd (SNTG2, Q9NY99) | pKd (MAGI2_6, Q86UL8) | pKd (APBA1_2, Q02410) | pKd (FRMPD2_3, Q68DX3) | pKd (HTRA2, O43464) | pKd (LIN7A, O14910) | pKd (LIMK2, P53671) | pKd (PARD3B_1, Q8TEW8) | pKd (GRASP, Q7Z6J2) | pKd (Inadl_9, Q8NI35) | pKd (DLG5_1, Q8TDM6) | other results
1 | B1 | below the threshold | below the threshold | below the threshold | 4.36 | below the threshold | 4.53 | below the threshold | below the threshold | below the threshold | below the threshold | below the threshold | 4.8 | below the threshold | 3.59 | below the threshold | below the threshold | 3.78 | below the threshold | 4.34 | below the threshold | pKd (DLG3_1, Q92796): below the threshold; pKd (MAGI3_2, Q5TCQ9): below the threshold; pKd (FRMPD3, Q5JV73): below the threshold; pKd (LNX1_1, Q8TBB1): below the threshold; pKd (GRIP2_7, Q9C0E4): 3.58; pKd (TX1BP3, O14907): below the threshold; pKd (AHNAK1, Q09666): below the threshold
2 | B2 | 4.96 | below the threshold | below the threshold | 3.55 | 4.28 | below the threshold | below the threshold | below the threshold | below the threshold | 4.71 | 4.09 | 3.68 | below the threshold | below the threshold | 3.49 | below the threshold | below the threshold | below the threshold | below the threshold | below the threshold | pKd (DLG3_1, Q92796): 4.15; pKd (MAGI3_2, Q5TCQ9): 5.24; pKd (FRMPD3, Q5JV73): below the threshold; pKd (LNX1_1, Q8TBB1): 4.08; pKd (GRIP2_7, Q9C0E4): below the threshold; pKd (TX1BP3, O14907): 5.72; pKd (AHNAK1, Q09666): below the threshold
3 | B3 | below the threshold | below the threshold | below the threshold | below the threshold | 3.65 | below the threshold | below the threshold | below the threshold | below the threshold | below the threshold | below the threshold | below the threshold | below the threshold | below the threshold | below the threshold | below the threshold | below the threshold | below the threshold | below the threshold | below the threshold | pKd (DLG3_1, Q92796): below the threshold; pKd (MAGI3_2, Q5TCQ9): below the threshold; pKd (FRMPD3, Q5JV73): below the threshold; pKd (LNX1_1, Q8TBB1): below the threshold; pKd (GRIP2_7, Q9C0E4): below the threshold; pKd (TX1BP3, O14907): below the threshold; pKd (AHNAK1, Q09666): below the threshold
4 | B4 | below the threshold | below the threshold | below the threshold | 3.82 | below the threshold | below the threshold | below the threshold | below the threshold | below the threshold | below the threshold | below the threshold | below the threshold | below the threshold | below the threshold | below the threshold | below the threshold | below the threshold | 3.74 | below the threshold | below the threshold | pKd (DLG3_1, Q92796): below the threshold; pKd (MAGI3_2, Q5TCQ9): below the threshold; pKd (FRMPD3, Q5JV73): below the threshold; pKd (LNX1_1, Q8TBB1): below the threshold; pKd (GRIP2_7, Q9C0E4): below the threshold; pKd (TX1BP3, O14907): below the threshold; pKd (AHNAK1, Q09666): below the threshold
5 | B5 | 3.56 | below the threshold | below the threshold | 4.07 | 3.65 | below the threshold | below the threshold | below the threshold | below the threshold | below the threshold | below the threshold | below the threshold | below the threshold | below the threshold | below the threshold | below the threshold | 3.62 | 3.53 | 3.48 | below the threshold | pKd (DLG3_1, Q92796): below the threshold; pKd (MAGI3_2, Q5TCQ9): below the threshold; pKd (FRMPD3, Q5JV73): below the threshold; pKd (LNX1_1, Q8TBB1): below the threshold; pKd (GRIP2_7, Q9C0E4): below the threshold; pKd (TX1BP3, O14907): below the threshold; pKd (AHNAK1, Q09666): below the threshold
